Numbered stars: 1 amine (or outer) side, 2 acyl side, 3 side chain; on linkers, the order of the positions; unused ones are H or OH. Bridge positions count the residues as written; N and C are the ends. Side chains are listed from the residue outwards. Ends that are not written are not given here. * marks the point of attachment. C20 diacid = O=C(O)CCCCCCCCCCCCCCCCCCC(=O)*; γGlu = O=C(O)[C@H](CCC(=O)[*:2])N[*:1]
T1: human amylin 3(a) receptor (human calcitonin receptor co-expressed with RAMP-3) (human, UniProt P30988 25-474; O60896 24-148, limits assumed)
T1 sequence (looked up) 1: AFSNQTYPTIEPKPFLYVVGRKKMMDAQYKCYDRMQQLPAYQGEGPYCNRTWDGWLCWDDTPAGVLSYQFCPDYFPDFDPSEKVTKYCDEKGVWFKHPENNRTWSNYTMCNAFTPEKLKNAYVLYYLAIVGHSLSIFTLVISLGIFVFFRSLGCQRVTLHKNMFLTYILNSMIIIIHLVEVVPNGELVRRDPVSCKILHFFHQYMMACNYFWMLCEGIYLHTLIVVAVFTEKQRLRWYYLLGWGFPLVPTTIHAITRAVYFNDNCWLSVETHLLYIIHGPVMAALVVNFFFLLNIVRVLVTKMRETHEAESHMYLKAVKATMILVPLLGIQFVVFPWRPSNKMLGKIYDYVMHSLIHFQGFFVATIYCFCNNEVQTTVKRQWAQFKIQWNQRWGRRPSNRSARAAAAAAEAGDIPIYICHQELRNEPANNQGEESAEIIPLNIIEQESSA
T1 sequence (looked up) 2: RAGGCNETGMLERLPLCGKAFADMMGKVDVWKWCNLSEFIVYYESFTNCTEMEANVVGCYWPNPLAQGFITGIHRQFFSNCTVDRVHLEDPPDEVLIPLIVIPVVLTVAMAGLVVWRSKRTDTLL

T2: human calcitonin receptor (human, UniProt P30988 25-474)
T2 sequence (looked up): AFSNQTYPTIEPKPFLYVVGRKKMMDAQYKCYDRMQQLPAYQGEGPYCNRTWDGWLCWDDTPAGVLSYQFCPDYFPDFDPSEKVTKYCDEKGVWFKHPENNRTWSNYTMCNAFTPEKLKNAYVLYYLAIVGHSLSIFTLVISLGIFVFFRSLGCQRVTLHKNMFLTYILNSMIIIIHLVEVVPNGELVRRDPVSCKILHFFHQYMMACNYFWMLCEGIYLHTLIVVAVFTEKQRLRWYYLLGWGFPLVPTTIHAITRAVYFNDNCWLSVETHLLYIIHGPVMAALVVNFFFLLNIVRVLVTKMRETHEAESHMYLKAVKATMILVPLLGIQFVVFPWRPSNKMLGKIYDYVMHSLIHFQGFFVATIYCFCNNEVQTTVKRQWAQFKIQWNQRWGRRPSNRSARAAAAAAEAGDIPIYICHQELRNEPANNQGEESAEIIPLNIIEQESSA


Columns and labels:
[1] = biological target: T1, human amylin 3(a) receptor (human …); assay: cell-based or functional assay
[2] = biological target: T2, human calcitonin receptor; assay: cell-based or functional assay

Binder	hAmylin-R funct. EC50 [1]	Ratio hCT/hAmylin funct. [2]	hCTR funct. EC50 [2]
K([γGlu-γGlu-C20 diacid])CNTATCATQRLAEFLRHSSPNFGAIPSSTNVGHETY-NH2 (disulfide 2-7; N-terminus assumed; SMILES CC[C@H](C)[C@H](NC(=O)[C@H](C)NC(=O)CNC(=O)[C@H](Cc1ccccc1)NC(=O)[C@H](CC(N)=O)NC(=O)[C@@H]1CCCN1C(=O)[C@H](CO)NC(=O)[C@H](CO)NC(=O)[C@H](Cc1c[nH]cn1)NC(=O)[C@H](CCCNC(=N)N)NC(=O)[C@H](CC(C)C)NC(=O)[C@H](Cc1ccccc1)NC(=O)[C@H](CCC(=O)O)NC(=O)[C@H](C)NC(=O)[C@H](CC(C)C)NC(=O)[C@H](CCCNC(=N)N)NC(=O)[C@H](CCC(N)=O)NC(=O)[C@@H](NC(=O)[C@H](C)NC(=O)[C@@H]1CSSC[C@H](NC(=O)[C@@H](N)CCCCNC(=O)CC[C@H](NC(=O)CC[C@H](NC(=O)CCCCCCCCCCCCCCCCCCC(=O)O)C(=O)O)C(=O)O)C(=O)N[C@@H](CC(N)=O)C(=O)N[C@@H]([C@@H](C)O)C(=O)N[C@@H](C)C(=O)N[C@@H]([C@@H](C)O)C(=O)N1)[C@@H](C)O)C(=O)N1CCC[C@H]1C(=O)N[C@@H](CO)C(=O)N[C@@H](CO)C(=O)N[C@H](C(=O)N[C@@H](CC(N)=O)C(=O)N[C@H](C(=O)NCC(=O)N[C@@H](Cc1c[nH]cn1)C(=O)N[C@@H](CCC(=O)O)C(=O)N[C@H](C(=O)N[C@@H](Cc1ccc(O)cc1)C(N)=O)[C@@H](C)O)C(C)C)[C@@H](C)O)	0.445 nM	15.8	7.05 nM
K([γGlu-γGlu-C20 diacid])CNTATCATQRLAEFLRHSSPNFGAIPSSTNVGPRTY-NH2 (disulfide 2-7; N-terminus assumed; SMILES CC[C@H](C)[C@H](NC(=O)[C@H](C)NC(=O)CNC(=O)[C@H](Cc1ccccc1)NC(=O)[C@H](CC(N)=O)NC(=O)[C@@H]1CCCN1C(=O)[C@H](CO)NC(=O)[C@H](CO)NC(=O)[C@H](Cc1c[nH]cn1)NC(=O)[C@H](CCCNC(=N)N)NC(=O)[C@H](CC(C)C)NC(=O)[C@H](Cc1ccccc1)NC(=O)[C@H](CCC(=O)O)NC(=O)[C@H](C)NC(=O)[C@H](CC(C)C)NC(=O)[C@H](CCCNC(=N)N)NC(=O)[C@H](CCC(N)=O)NC(=O)[C@@H](NC(=O)[C@H](C)NC(=O)[C@@H]1CSSC[C@H](NC(=O)[C@@H](N)CCCCNC(=O)CC[C@H](NC(=O)CC[C@H](NC(=O)CCCCCCCCCCCCCCCCCCC(=O)O)C(=O)O)C(=O)O)C(=O)N[C@@H](CC(N)=O)C(=O)N[C@@H]([C@@H](C)O)C(=O)N[C@@H](C)C(=O)N[C@@H]([C@@H](C)O)C(=O)N1)[C@@H](C)O)C(=O)N1CCC[C@H]1C(=O)N[C@@H](CO)C(=O)N[C@@H](CO)C(=O)N[C@H](C(=O)N[C@@H](CC(N)=O)C(=O)N[C@H](C(=O)NCC(=O)N1CCC[C@H]1C(=O)N[C@@H](CCCNC(=N)N)C(=O)N[C@H](C(=O)N[C@@H](Cc1ccc(O)cc1)C(N)=O)[C@@H](C)O)C(C)C)[C@@H](C)O, also called compound 110)	0.278 nM	29.3	8.16 nM

— patent US20140087995A1 (published 2014)
